According to patent US20060154864, “Transcript factor and an Akt substrate related to transcriptional action of insulin and applications of same” (Emory University, published 2006):

How the values were obtained:
[1] = test system: IRE-BP1 C-terminal fragment (3.4-kb cDNA) (Rattus norvegicus); experiment: cell_activity
NFkB p50 = NFkB p50 (UniProt P19838 P19838:1-433); experiment: EMSA; supershifted by p50 antibody; settings: tags: E. coli-expressed; chain copies: 2; label: 32P
NFkB p50, sequence (P19838 1-433, one chain of several): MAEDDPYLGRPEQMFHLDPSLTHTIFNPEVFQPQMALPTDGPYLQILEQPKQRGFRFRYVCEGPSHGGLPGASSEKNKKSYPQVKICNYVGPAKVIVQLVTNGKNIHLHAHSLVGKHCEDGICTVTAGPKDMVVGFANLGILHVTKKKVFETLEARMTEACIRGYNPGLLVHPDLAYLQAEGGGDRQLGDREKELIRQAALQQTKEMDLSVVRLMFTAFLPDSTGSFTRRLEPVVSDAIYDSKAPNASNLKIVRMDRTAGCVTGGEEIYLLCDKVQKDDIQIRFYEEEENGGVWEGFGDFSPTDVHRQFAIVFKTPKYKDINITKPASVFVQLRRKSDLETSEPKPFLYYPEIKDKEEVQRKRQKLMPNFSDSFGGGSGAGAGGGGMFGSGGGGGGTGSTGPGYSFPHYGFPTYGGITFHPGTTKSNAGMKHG

## AATTCAAGGGTATCCAGGAAAGTCTCCTTCAAG (double strand) [IGFBP-3 IRE]
[1]; COS-7 luciferase, 2-fold on control vector
  activity: 14 fold

## GCCTCATTATTCCTGCCCACCAAT (double strand) [IGF-1 IRE]
[1]; COS-7 luciferase, basal, 3.5-fold with insulin
  activity: 4.7 fold

## GTTTGTTTTGCTAGT (double strand) [IGFBP-1 IRE]
[1]; with insulin, vs 24.7% vector alone, no basal effect, SEQ 50 inferred
  activity: 63.2 % decrease

B1: IGFBP-3 IRE (dsDNA)
DNA 1: AATTCAAGGGTATCCAGGAAAGTCTCCTTCAAG
DNA 2: CTTGAAGGAGACTTTCCTGGATACCCTTGAATT
NFkB p50
  binding result: binds
